Source: patent US20210231678A1, “ALLERGY ANTIGEN AND EPITOPE THEREOF” (FUJITA ACADEMY, priority 2020, published 2021)

System: IgE antibody in the serum of a latex-allergic patient
Experiment: Immunoblotting of two-dimensional electrophoresis gels of latex proteins with patient serum
Assay type: binding, human
Conditions: immunoblot of 2D electrophoresis gel of latex proteins, compared with serum of non-latex-allergic subject
Description: Identification of antigens by immunoblotting was carried out by taking all the steps up to the step of “Second-dimensional SDS-PAGE” as described above in Example 1, followed by the steps of “Transfer to membrane”, “Immunoblotting” and “Analysis” as described below.
Transfer system: XCell SureLock Mini-Cell and XCell II Blot Module (produced by Life Technologies) Transfer buffer: NuPAGE Transfer Buffer (X20) (produced by Life Technologies), used in a form diluted 200-fold with milliQ water.
Immunoblotting of the membrane was carried out using, as a primary antibody, a serum sample from a patient with a latex allergy or a serum sample from a non-latex-allergic subject.
(1) The transferred membrane was shaken in a 5% skim milk/PBST solution (a PBS buffer containing 0.1% Tween 20 nonionic surfactant) at room temperature for one hour. […]
The immunoblots obtained with the serum from the latex-allergic patient were compared with those obtained with the control serum from the non-latex-allergic subject. For protein present in latex, in immunoblotting using the serum from the latex-allergic patient, 2 spots were detected, which are different from the spots detected when the serum of the non-latex-allergic subject was used and different from those of the known latex allergen proteins. […]

| Molecule | specific binding to IgE antibodies from allergic patients |
| --- | --- |
| Citrate-binding protein (protein, listed as Hevea brasiliensis) MKMKRSPYCFCCSFALLLLVSFLKDRHFCSADPTDGFTEVPLTEDNFVIQKPYDKPLNDRYSYKNGIRRLWVYENDKPFKVGSPTRPRTEIRIKGHDYSSGVWQFEGQVHVPEGTSGVTVMQVFGAVNKATALQLRVYNGDLKSYKSNSVATDIYNKWLRVNVIHKVGKGEITVFINGQQKLVVNDDGPAEHYFKCGVYAAPDGSSNYMESRWKNIKLYKSDNKLEGCNNNHGTWLVQ | specifically bind to IgE antibodies from allergic patients |
| Hevamine-A (protein, listed as Hevea brasiliensis) MAKRTQAILLLLLAISLIMSSSHVDGGGIAIYWGQNGNEGTLTQTCSTRKYSYVNIAFLNKFGNGQTPQINLAGHCNPAAGGCTIVSNGIRSCQIQGIKVMLSLGGGIGSYTLASQADAKNVADYLWNNFLGGKSSSRPLGDAVLDGIDFDIEHGSTLYWDDLARYLSAYSKQGKKVYLTAAPQCPFPDRYLGTALNTGLFDYVWVQFYNNPPCQYSSGNINNIINSWNRWTTSINAGKIFLGLPAAPEAAGSGYVPPDVLISRILPEIKKSPKYGGVMLWSKFYDDKNGYSSSILDSVLFLHSEECMTVL | specifically bind to IgE antibodies from allergic patients |
